Measurements reported in US20260191937A1, “AGENTS, COMPOSITIONS AND METHODS FOR MODULATING IMMUNITY” (The University of Queensland, priority 2022, published 2026).
Where a chain is given by its changes, count along the chain named.

B1: HDAC7: Mouse HDAC7 lacking the first 22 amino acids, SEQ ID NO:13, expression construct (protein, listed as Mus musculus)
chain: MDLRVGQRPTVEPPPEPALLTLQHPQRLHRHLFLAGLHQQQRSAEPMRLSMDPPMPELQGGQQEQELRQLLNKDKSKRSAVASSVVKQKLAEVILKKQQAALERTVHPSSPSIPYRTLEPLDTEGAARSVLSSFLPPVPSLPTEPPEHFPLRKTVSEPNLKLRYKPKKSLERRKNPLLRKESAPPSLRRRPAETLGDSSPSSSSTPASGCSSPNDSEHGPNPALGSEADGDRRTHSTLGPRGPVLGNPHAPLFLHHGLEPEAGGTLPSRLQPILLLDPSVSHAPLWTVPGLGPLPFHFAQPLLTTERLSGSGLHRPLNRTRSEPLPPSATASPLLAPLQPRQDRLKPHVQLIKPAISPPQRPAKPSEKPRLRQIPSAEDLETDGGGVGPMANDGLEHRESGRGPPEGRGSISLQQHQQVPPWEQQHLAGRLSQGSPGDSVLIPLAQVGHRPLSRTQSSPAAPVSMLSPEPTCQTQVLNSSETPATGLVYDSVMLKHQCSCGDNSKHPEHAGRIQSIWSRLQERGLRSQCECLRGRKASLEELQSVHSERHVLLYGTNPLSRLKLDNGKLTGLLAQRTFVMLPCGGVGVDTDTIWNELHSSNAARWAAGSVTDLAFKVASRELKNGFAVVRPPGHHADHSTAMGFCFFNSVAIACRQLQQHGKASKILIVDWDVHHGNGTQQTFYQDPSVLYISLHRHDDGNFFPGSGAVDEVGTGSGEGFNVNVAWAGGLDPPMGDPEYLAAFRIVVMPIAREFAPDLVLVSAGFDAAEGHPAPLGGYHVSAKCFGYMTQQLMNLAGGAVVLALEGGHDLTAICDASEACVAALLGNKVDPLSEESWKQKPNLSAIRSLEAVVRVHRKYWGCMQRLASCPDSWLPRVPGADAEVEAVTALASLSVGILAEDRPSERLVEEEEPMNL
B2: ED HDAC7: enzyme-dead mutant HDAC7 carrying an H-to-A mutation, SEQ ID NO:14 (protein)
chain: B1 chain with H635A
B3: N-terminal domain of HDAC7: N-terminal HDAC7, amino acid 23-504, SEQ ID NO:15 (protein, listed as Mus musculus)
chain: MDLRVGQRPTVEPPPEPALLTLQHPQRLHRHLFLAGLHQQQRSAEPMRLSMDPPMPELQGGQQEQELRQLLNKDKSKRSAVASSVVKQKLAEVILKKQQAALERTVHPSSPSIPYRTLEPLDTEGAARSVLSSFLPPVPSLPTEPPEHFPLRKTVSEPNLKLRYKPKKSLERRKNPLLRKESAPPSLRRRPAETLGDSSPSSSSTPASGCSSPNDSEHGPNPALGSEADGDRRTHSTLGPRGPVLGNPHAPLFLHHGLEPEAGGTLPSRLQPILLLDPSVSHAPLWTVPGLGPLPFHFAQPLLTTERLSGSGLHRPLNRTRSEPLPPSATASPLLAPLQPRQDRLKPHVQLIKPAISPPQRPAKPSEKPRLRQIPSAEDLETDGGGVGPMANDGLEHRESGRGPPEGRGSISLQQHQQVPPWEQQHLAGRLSQGSPGDSVLIPLAQVGHRPLSRTQSSPAAPVSMLSPEPTCQTQVLNSSET
B4: C-terminal deacetylase domain of HDAC7: C-terminal HDAC7, amino acid 498-938, SEQ ID NO:23 (protein, listed as Mus musculus)
chain: MVLNSSETPATGLVYDSVMLKHQCSCGDNSKHPEHAGRIQSIWSRLQERGLRSQCECLRGRKASLEELQSVHSERHVLLYGTNPLSRLKLDNGKLTGLLAQRTFVMLPCGGVGVDTDTIWNELHSSNAARWAAGSVTDLAFKVASRELKNGFAVVRPPGHHADHSTAMGFCFFNSVAIACRQLQQHGKASKILIVDWDVHHGNGTQQTFYQDPSVLYISLHRHDDGNFFPGSGAVDEVGTGSGEGFNVNVAWAGGLDPPMGDPEYLAAFRIVVMPIAREFAPDLVLVSAGFDAAEGHPAPLGGYHVSAKCFGYMTQQLMNLAGGAVVLALEGGHDLTAICDASEACVAALLGNKVDPLSEESWKQKPNLSAIRSLEAVVRVHRKYWGCMQRLASCPDSWLPRVPGADAEVEAVTALASLSVGILAEDRPSERLVEEEEPMNL

Legend:
[1] = system: uropathogenic Escherichia coli (UPEC) strain EC958; assay: Growth of UPEC strain EC958 with or without H2O2 oxidative stress (OD600, 12 h); type: cell-based; conditions: 0.8 mM H2O2
Experimental: FIG. 5 is a graphical representation showing effect of increasing RL5P concentrations on the growth of uropathogenic Escherichia coli (UPEC) strain EC958 under conditions of oxidative stress in the form of 0.8 mM H2O2. (A) EC958 was cultured±H2O2 (0.8 mM) in the presence of the indicated concentrations of RL5P for 12 h, during which growth was assessed (A600 at the indicated time points); (B) Area under the curve analysis for the 12 h period was calculated thereafter and is presented in FIG. 5B. Data are compiled from four independent experiments and are presented as mean±SEM. Each symbol represents a different experiment. Statistical significance for (B) was determined using repeated measure two-way ANOVA followed by non-parametric Kruskal Wallis test followed by Dunn's multiple comparison test (ns—not significant; * p<0.05; **** p<0.0001).
FIG. 6 is a graphical representation showing effect of increasing RL5P concentrations on the growth of UPEC under conditions of oxidative stress in the form of 1 mM H2O2. (A) EC958 was cultured±H2O2 (1 mM) in the presence of the indicated concentrations of RL5P for 12 h, during which growth was assessed (A600 at the indicated time points); (B) EC958 was cultured in the presence of the indicated concentrations of RL5P and the absence of H2O2 for 12 h, during which growth was assessed (A600 at the indicated time points). Data are compiled from four independent experiments and are presented as mean±SEM.
FIG. 7 is a graphical representation showing the effect of RL5P and 6-phosphogluconate (6PG) on the on the growth of UPEC under conditions of oxidative stress in the form of H202. (A) EC958 was cultured±H2O2 (0.8 mM) in the presence of the indicated concentration of RL5P or 6PG for 12 h, during which growth was assessed (A600 at the indicated time points); (B). Each symbol represents a different experiment. Statistical significance for (B) was determined using repeated measure two-way ANOVA followed by non-parametric Kruskal Wallis test followed by Dunn's multiple comparison test (ns—not significant; * p<0.05; **** p<0.0001).
All bacterial strains were cultured at 37° C. on solid or liquid Luria-Bertani (LB) medium. The non-pathogenic E. coli K12 strain MG1655 (Blattner et al., 1997. Science. 277:1453-1462) and EC958, a representative strain of the globally-disseminated multidrug-resistant ST131 clone isolated from the urine of a patient with a urinary tract infection (Totsika et al., 2011, PloS one. 6:e26578-e26578; Petty et al., 2014, Proc Natl Acad Sci USA. 111:5694-5699), were used in this study. […] Bacterial growth was assessed by monitoring OD600 using a POLARstar Omega (BMG Labtech) at 20-30 min intervals.

[2] = target: T1, 6PGD (Mus musculus, UniProt Q9DCD0); assay: 6PGD enzyme activity in lysates of HEK293 cells co-transfected with 6PGD and HDAC7 constructs; type: biochemical; conditions: molar ratio 1:1 (6PGD:HDAC), 24 h after transfection
T1 construct: host or cells: HEK293
T1 sequence (Q9DCD0 1-483): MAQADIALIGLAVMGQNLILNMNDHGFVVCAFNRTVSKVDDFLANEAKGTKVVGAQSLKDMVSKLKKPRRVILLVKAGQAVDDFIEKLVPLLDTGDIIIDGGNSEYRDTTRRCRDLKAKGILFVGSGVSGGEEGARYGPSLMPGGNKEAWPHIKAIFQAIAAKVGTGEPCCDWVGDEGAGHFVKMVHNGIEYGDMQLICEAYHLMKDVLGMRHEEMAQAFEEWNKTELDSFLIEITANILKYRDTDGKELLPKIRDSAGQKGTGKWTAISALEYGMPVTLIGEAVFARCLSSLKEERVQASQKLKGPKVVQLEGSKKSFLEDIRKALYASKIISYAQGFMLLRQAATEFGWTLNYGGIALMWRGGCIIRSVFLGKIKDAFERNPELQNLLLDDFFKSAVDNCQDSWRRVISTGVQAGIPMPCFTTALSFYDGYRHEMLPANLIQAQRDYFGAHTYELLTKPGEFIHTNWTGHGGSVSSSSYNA
Experimental: FIG. 19 is a graphical representation of HDAC7 increasing 6PGD enzyme activity in HEK293 cells. HEK293 cells were transfected with expression constructs encoding (A-B) 6PGD and/or HDAC7, (C-D) 6PGD and HDAC7 wild type (WT) or HDAC7 enzyme-dead (ED), (E-F) 6PGD and full-length (HDAC7), N-terminal HDAC7 (N-HDAC7) or C-terminal HDAC7 (C-HDAC7) at a molar ratio of 1:1 (6PGD:HDAC). After 24 h, cells were lysed and the enzymatic activity of 6PGD in lysates was measured. […] Statistical analysis was performed using repeated measure one-way ANOVA followed by Dunnett's multiple comparison (ns, not significant; * p<0.05; ** p<0.01). (B, D, F) Levels of 6PGD (Flag), HDAC7 (V5) and GAPDH expression in cell lysates were assessed via western blot.
6PGD activity can be enhanced by co-delivering HDAC7. HEK293 cells were plated in 12-well plates and incubated overnight at 37° C. The Lipofectamine 2000 (Invitrogen) transfection reagent was prepared in OptiMEM to a final concentration of 1 μg DNA per μL and incubated at room temperature for 5 min. Plasmid DNA was diluted in OptiMEM (Gibco) and then mixed with Lipofectamine 2000, after which the transfection mixture was incubated at room temperature for 30 min. Prior to transfection, cell culture media was replaced with OptiMEM, after which the transfection mixture was added into cells. Cells were then incubated at 37° C. for 6-8 h before being supplemented with fresh OptiMEM. 24 h post-transfection, culture supernatants were discarded, and cells were briefly washed with DPBS and lysed for different analyses.
Mouse HDAC7 (the unspliced isoform lacking the first 22 amino acids), an enzyme-dead (ED) mutant HDAC7 carrying an H-to-A mutation (Das Gupta et al., 2020, Cell Rep. 30:2712-2728.e2718), N-terminal HDAC7 (N-HDAC7, amino acid 23-504, comprising a PHA03247 super family motif corresponding to the herpes simplex virus-1 UL36 large tegument protein, which is known to comprise deubiquitinating activity) and C-terminal HDAC7 (C-HDAC7, amino acid 498-938) were cloned in pEF6/V5-His-TOPO vectors. Mouse 6PGD was cloned in a pCMV expression vector (MG53165-CF, Sino Biologicals). HEK293 cells were transiently transfected with expression constructs encoding 6PGD and HDAC7 at a molar ratio of 1:1. 24 h after transfection, cells were lysed and lysates were subjected to 6PGD activity assays using an in vitro assay (Abcam), as per the manufacturer's instructions. The enzymatic activity was determined by measuring absorbance at 460 nm in kinetic mode using a plate reader (Infinite M Plex, Tecan).

| Molecule | UPEC growth under oxidative stress [1] | enzymatic activity of 6PGD relative to cells transfected with 6PGD alone [2] | enzymatic activity of 6PGD relative to cells transfected with 6PGD alone ([2]; listed as WT HDAC7) |
| --- | --- | --- | --- |
| O=C(O)[C@H](O)[C@@H](O)[C@H](O)[C@H](O)COP(=O)(O)O [6PG, 6-phosphogluconate, reference compound] | did not affect UPEC growth |  |  |
| B1 |  | significantly increases 6PGD activity | significantly increased the enzymatic activity of 6PGD to a similar level |
| B2 |  | significantly increased the enzymatic activity of 6PGD to a similar level |  |
| B3 |  | increased the enzymatic activity of 6PGD to similar levels to that of the WT HDAC7 |  |
| B4 |  | does not activate 6PGD |  |
